This is an account of results in PMC2856694.

This assay deals with T1, gp96 from normal mouse organs (mouse (endogenous in mouse organs)), P08113.
T1 chain: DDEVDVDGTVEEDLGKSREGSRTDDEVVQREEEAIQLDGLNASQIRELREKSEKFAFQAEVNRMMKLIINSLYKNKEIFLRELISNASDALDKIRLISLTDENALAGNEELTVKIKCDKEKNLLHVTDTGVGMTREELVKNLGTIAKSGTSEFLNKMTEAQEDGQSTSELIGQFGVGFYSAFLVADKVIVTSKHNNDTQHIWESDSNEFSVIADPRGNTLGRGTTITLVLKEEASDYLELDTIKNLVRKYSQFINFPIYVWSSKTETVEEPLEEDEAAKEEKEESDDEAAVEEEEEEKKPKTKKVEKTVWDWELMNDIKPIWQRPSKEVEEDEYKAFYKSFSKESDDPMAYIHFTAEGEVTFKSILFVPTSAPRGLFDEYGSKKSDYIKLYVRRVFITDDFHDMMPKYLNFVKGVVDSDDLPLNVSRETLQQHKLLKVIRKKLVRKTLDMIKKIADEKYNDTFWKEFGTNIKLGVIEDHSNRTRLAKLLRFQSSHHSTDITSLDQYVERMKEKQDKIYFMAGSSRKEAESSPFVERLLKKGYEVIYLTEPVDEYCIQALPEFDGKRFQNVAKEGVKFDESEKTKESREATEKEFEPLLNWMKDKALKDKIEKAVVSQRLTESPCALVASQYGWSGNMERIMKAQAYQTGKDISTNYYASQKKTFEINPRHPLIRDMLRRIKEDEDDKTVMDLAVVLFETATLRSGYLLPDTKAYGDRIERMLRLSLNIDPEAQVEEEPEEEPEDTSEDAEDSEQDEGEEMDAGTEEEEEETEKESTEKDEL
The assay can be described thus: non-reducing SDS-PAGE with immunoblot. Conditions: remark: other sources report otherwise.

Bounds are passed on as bounds.

B1: gp96 from normal mouse organs, P08113 22-802 (natural protein)
chain: DDEVDVDGTVEEDLGKSREGSRTDDEVVQREEEAIQLDGLNASQIRELREKSEKFAFQAEVNRMMKLIINSLYKNKEIFLRELISNASDALDKIRLISLTDENALAGNEELTVKIKCDKEKNLLHVTDTGVGMTREELVKNLGTIAKSGTSEFLNKMTEAQEDGQSTSELIGQFGVGFYSAFLVADKVIVTSKHNNDTQHIWESDSNEFSVIADPRGNTLGRGTTITLVLKEEASDYLELDTIKNLVRKYSQFINFPIYVWSSKTETVEEPLEEDEAAKEEKEESDDEAAVEEEEEEKKPKTKKVEKTVWDWELMNDIKPIWQRPSKEVEEDEYKAFYKSFSKESDDPMAYIHFTAEGEVTFKSILFVPTSAPRGLFDEYGSKKSDYIKLYVRRVFITDDFHDMMPKYLNFVKGVVDSDDLPLNVSRETLQQHKLLKVIRKKLVRKTLDMIKKIADEKYNDTFWKEFGTNIKLGVIEDHSNRTRLAKLLRFQSSHHSTDITSLDQYVERMKEKQDKIYFMAGSSRKEAESSPFVERLLKKGYEVIYLTEPVDEYCIQALPEFDGKRFQNVAKEGVKFDESEKTKESREATEKEFEPLLNWMKDKALKDKIEKAVVSQRLTESPCALVASQYGWSGNMERIMKAQAYQTGKDISTNYYASQKKTFEINPRHPLIRDMLRRIKEDEDDKTVMDLAVVLFETATLRSGYLLPDTKAYGDRIERMLRLSLNIDPEAQVEEEPEEEPEDTSEDAEDSEQDEGEEMDAGTEEEEEETEKESTEKDEL
As for B1, the percent of total gp96 migrating at ~200 kDa (disulfide-linked dimer) was below 50%.
